According to publication PMC8669218:

Biological target: extracellular domain of human DPP4 (residues 39-766), wild type (human), P27487
Assay: nonreducing SDS-PAGE
Settings: remark: other sources report otherwise

B1: extracellular domain of human DPP4 (residues 39-766), wild type, P27487 39-766 (domain or fragment)
chain: SRKTYTLTDYLKNTYRLKLYSLRWISDHEYLYKQENNILVFNAEYGNSSVFLENSTFDEFGHSINDYSISPDGQFILLEYNYVKQWRHSYTASYDIYDLNKRQLITEERIPNNTQWVTWSPVGHKLAYVWNNDIYVKIEPNLPSYRITWTGKEDIIYNGITDWVYEEEVFSAYSALWWSPNGTFLAYAQFNDTEVPLIEYSFYSDESLQYPKTVRVPYPKAGAVNPTVKFFVVNTDSLSSVTNATSIQITAPASMLIGDHYLCDVTWATQERISLQWLRRIQNYSVMDICDYDESSGRWNCLVARQHIEMSTTGWVGRFRPSEPHFTLDGNSFYKIISNEEGYRHICYFQIDKKDCTFITKGTWEVIGIEALTSDYLYYISNEYKGMPGGRNLYKIQLSDYTKVTCLSCELNPERCQYYSVSFSKEAKYYQLRCSGPGLPLYTLHSSVNDKGLRVLEDNSALDKMLQNVQMPSKKLDFIILNETKFWYQMILPPHFDKSKKYPLLLDVYAGPCSQKADTVFRLNWATYLASTENIIVASFDGRGSGYQGDKIMHAINRRLGTFEVEDQIEAARQFSKMGFVDNKRIAIWGWSYGGYVTSMVLGSGSGVFKCGIAVAPVSRWEYYDSVYTERYMGLPTPEDNLDHYRNSTVMSRAENFKQVEYLLIHGTADDNVHFQQSAQISKALVDVGVDFQAMWYTDEDHGIASSTAHQHIYTHMSHFIKQCFSLP
modifications: here or on the partner: glycosylated (sites not given); glycosylated (sites not given)
- dimer percent: 40.8%
